Assay results as given in the supplement of paper PMC11316812.
± gives the standard deviation of the averaged measurements.

Assays:
hTERT-HMEC = assay: percentage of EdU-negative (G0-arrested) nuclei per well, 72 h; higher = more G0 arrest; conditions: reference: sequence is the full UniProt precursor, the tested protein was the secreted form or ectodomain
MCF7 = assay: as above; conditions: reference: sequence is the full UniProt precursor, the tested protein was the secreted form or ectodomain
[1] = protein concentration 0.0225 µM
[2] = protein concentration 0.00975 µM
[3] = protein concentration 0.0975 µM
[4] = protein concentration 0.0145714 µM
[5] = protein concentration 0.145714 µM
[6] = protein concentration 0.0357143 µM
[7] = protein concentration 0.357143 µM
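Note: secreted proteins added to cultured cells, EdU pulse at the end, nuclei found by Hoechst imaging, EdU status from nuclear versus surrounding ring intensity ratio, PBS as neutral control.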

Question: Which “percentage of EdU-negative” value (hTERT-HMEC; [1]) does the source give for “MNGFASLLRRNQFILLVLFLLQIQSLGLDIDSRPTAEVCATHTISPGPKGDDGEKGDPGEEGKHGKVGRMGPKGIKGELGDMGDQGNIGKTGPIGKKGDKGEKGLLGIPGEKGKAGTVCDCGRYRKFVGQLDISIARLKTSMKFVKNVIAGIRETEEKFYYIVQEEKNYRESLTHCRIRGGMLAMPKDEAANTLIADYVAKSGFFRVFIGVNDLEREGQYMFTDNTPLQNYSNWNEGEPSDPYGHEDCVEMLSSGRWNDTECHLTMYFVCEFIKKKK [Q9Y6Z7]” here?
Answer: 5.319 ± 0.012%

Question: What about the “percentage of EdU-negative” value (hTERT-HMEC; protein concentration 0.225 µM) of the same sequence?
Answer: 7.17 ± 1.1%

Question: What about the “percentage of EdU-negative” value (MCF7; [1]) of the same sequence?
Answer: 24.36 ± 0.1%

Question: And the “percentage of EdU-negative” value (MCF7; protein concentration 0.225 µM)?
Answer: 29.1 ± 0.55%

Question: How did the “percentage of EdU-negative” value (hTERT-HMEC; [1]) turn out when “MNLAISIALLLTVLQVSRGQKVTSLTACLVDQSLRLDCRHENTSSSPIQYEFSLTRETKKHVLFGTVGVPEHTYRSRTNFTSKYNMKVLYLSAFTSKDEGTYTCALHHSGHSPPISSQNVTVLRDKLVKCEGISLLAQNTSWLLLLLLSLSLLQATDFMSL” was run?
Answer: 4.527 ± 0.039%

Question: What about the “percentage of EdU-negative” value (hTERT-HMEC; protein concentration 0.225 µM) of the same sequence?
Answer: 6.24 ± 0.86%

Question: And the “percentage of EdU-negative” value (MCF7; [1])?
Answer: 27.7 ± 0.2%

Question: And the “percentage of EdU-negative” value (MCF7; protein concentration 0.225 µM)?
Answer: 26.6 ± 1.3%

Question: For “MNLWLLACLVAGFLGAWAPAVHTQGVFEDCCLAYHYPIGWAVLRRAWTYRIQEVSGSCNLPAAIFYLPKRHRKVCGNPKSREVQRAMKLLDARNKVFAKLHHNTQTFQAGPHAVKKLSSGNSKLSSSKFSNPISSSKRNVSLLISANSGL”, which “percentage of EdU-negative” value (hTERT-HMEC; [2]) is on record?
Answer: 4.38 ± 0.21%

Question: What about the “percentage of EdU-negative” value (hTERT-HMEC; [3]) of the same sequence?
Answer: 5.5688 ± 0.0047%

Question: What about the “percentage of EdU-negative” value (MCF7; [2]) of the same sequence?
Answer: 24.3 ± 1.7%

Question: And the “percentage of EdU-negative” value (MCF7; [3])?
Answer: 25.01 ± 0.22%

Question: With “MNNLLCCALVFLDISIKWTTQETFPPKYLHYDEETSHQLLCDKCPPGTYLKQHCTAKWKTVCAPCPDHYYTDSWHTSDECLYCSPVCKELQYVKQECNRTHNRVCECKEGRYLEIEFCLKHRSCPPGFGVVQAGTPERNTVCKRCPDGFFSNETSSKAPCRKHTNCSVFGLLLTQKGNATHDNICSGNSESTQKCGIDVTLCEEAFFRFAVPTKFTPNWLSVLVDNLPGTKVNAESVERIKRQHSSQEQTFQLLKLWKHQNKDQDIVKKIIQDIDLCENSVQRHIGHANLTFEQLRSLMESLPGKKVGAEDIEKTIKACKPSDQILKLLSLWRIKNGDQDTLKGLMHALKHSKTYHFPKTVTQSLKKTIRFLHSFTMYKLYQKLFLEMIGNQVQSVKISCL” as the sequence, how does the “percentage of EdU-negative” value (hTERT-HMEC; protein concentration 0.034 µM) read?
Answer: 4.98 ± 0.78%

Question: And the “percentage of EdU-negative” value (hTERT-HMEC; protein concentration 0.34 µM)?
Answer: 8.17 ± 0.14%

Question: And the “percentage of EdU-negative” value (MCF7; protein concentration 0.034 µM)?
Answer: 22.2 ± 1.3%

Question: What about the “percentage of EdU-negative” value (MCF7; protein concentration 0.34 µM) of the same sequence?
Answer: 29.5 ± 1%

Question: With “MNPTLGLAIFLAVLLTVKGLLKPSFSPRNYKALSEVQGWKQRMAAKELARQNMDLGFKLLKKLAFYNPGRNIFLSPLSISTAFSMLCLGAQDSTLDEIKQGFNFRKMPEKDLHEGFHYIIHELTQKTQDLKLSIGNTLFIDQRLQPQRKFLEDAKNFYSAETILTNFQNLEMAQKQINDFISQKTHGKINNLIENIDPGTVMLLANYIFFRARWKHEFDPNVTKEEDFFLEKNSSVKVPMMFRSGIYQVGYDDKLSCTILEIPYQKNITAIFILPDEGKLKHLEKGLQVDTFSRWKTLLSRRVVDVSVPRLHMTGTFDLKKTLSYIGVSKIFEEHGDLTKIAPHRSLKVGEAVHKAELKMDERGTEGAAGTGAQTLPMETPLVVKIDKPYLLLIYSEKIPSVLFLGKIVNPIGK [Q8IW75]” as the sequence, how does the “percentage of EdU-negative” value (hTERT-HMEC; [4]) read?
Answer: 6.15 ± 0.62%

Question: What about the “percentage of EdU-negative” value (hTERT-HMEC; [5]) of the same sequence?
Answer: 15.6 ± 0.67%

Question: And the “percentage of EdU-negative” value (MCF7; [4])?
Answer: 26.6 ± 0.27%

Question: And the “percentage of EdU-negative” value (MCF7; [5])?
Answer: 29.1 ± 1.5%

Question: Which results are given for “MNPTLILAAFCLGIASATLTFDHSLEAQWTKWKAMHNRLYGMNEEGWRRAVWEKNMKMIELHNQEYREGKHSFTMAMNAFGDMTSEEFRQVMNGFQNRKPRKGKVFQEPLFYEAPRSVDWREKGYVTPVKNQGQCGSCWAFSATGALEGQMFRKTGRLISLSEQNLVDCSGPQGNEGCNGGLMDYAFQYVQDNGGLDSEESYPYEATEESCKYNPKYSVANDTGFVDIPKQEKALMKAVATVGPISVAIDAGHESFLFYKEGIYFEPDCSSEDMDHGVLVVGYGFESTESDNNKYWLVKNSWGEEWGMGGYVKMAKDRRNHCGIASAASYPTV”?
Answer: percentage of EdU-negative (hTERT-HMEC; [6]): 4.81 ± 0.59%; percentage of EdU-negative (hTERT-HMEC; [7]): 5.42 ± 0.42%; percentage of EdU-negative (MCF7; [6]): 27.8 ± 1.3%; percentage of EdU-negative (MCF7; [7]): 24 ± 1.1%

Question: For “MNQKTILVLLILAVITIFALVCVLLVGRGGDGGEPSQLPHCPSVSPSAQPWTHPGQSQLFADLSREELTAVMRFLTQRLGPGLVDAAQARPSDNCVFSVELQLPPKAAALAHLDRGSPPPAREALAIVFFGRQPQPNVSELVVGPLPHPSYMRDVTVERHGGPLPYHRRPVLFQEYLDIDQMIFNRELPQASGLLHHCCFYKHRGRNLVTMTTAPRGLQSGDRATWFGLYYNISGAGFFLHHVGLELLVNHKALDPARWTIQKVFYQGRYYDSLAQLEAQFEAGLVNVVLIPDNGTGGSWSLKSPVPPGPAPPLQFYPQGPRFSVQGSRVASSLWTFSFGLGAFSGPRIFDVRFQGERLVYEISLQEALAIYGGNSPAAMTTRYVDGGFGMGKYTTPLTRGVDCPYLATYVDWHFLLESQAPKTIRDAFCVFEQNQGLPLRRHHSDLYSHYFGGLAETVLVVRSMSTLLNYDYVWDTVFHPSGAIEIRFYATGYISSAFLFGATGKYGNQVSEHTLGTVHTHSAHFKVDLDVAGLENWVWAEDMVFVPMAVPWSPEHQLQRLQVTRKLLEMEEQAAFLVGSATPRYLYLASNHSNKWGHPRGYRIQMLSFAGEPLPQNSSMARGFSWERYQLAVTQRKEEEPSSSSVFNQNDPWAPTVDFSDFINNETIAGKDLVAWVTAGFLHIPHAEDIPNTVTVGNGVGFFLRPYNFFDEDPSFYSADSIYFRGDQDAGACEVNPLACLPQAAACAPDLPAFSHGGFSHN”, which “percentage of EdU-negative” value (hTERT-HMEC; [4]) is on record?
Answer: 5.32 ± 0.3%

Question: And the “percentage of EdU-negative” value (hTERT-HMEC; [5])?
Answer: 6.82 ± 0.15%

Question: What about the “percentage of EdU-negative” value (MCF7; [4]) of the same sequence?
Answer: 22.8 ± 0.3%

Question: And the “percentage of EdU-negative” value (MCF7; [5])?
Answer: 26.8 ± 0.78%
